The values that follow come from US20220356230A1.

This assay concerns the target VSV G protein on VSV delta G pseudotyped virus-like particles (Vesicular stomatitis virus) (UniProt P03522).
Substance mAb10933 (antibody) yielded a VSV-VLP Binding Signal (RLU) of 507 RLU. The figure for mAb10934 (antibody) is 3880 RLU.

As to mAb10936 (antibody), the VSV-VLP Binding Signal (RLU) was determined as 2320 RLU. For the substance mAb10987 (antibody), the VSV-VLP Binding Signal (RLU) turned out to be 1840 RLU.
